These results are taken from US20020164690A1.

The target of experiment [1] is CNTFRα on PC12D cells (UniProt Q08406). Briefly: Scatchard analysis of 125I-CNTF saturation binding on PC12D cells, two-site fit; low affinity site, said to correspond to CNTF with CNTFRα.
Experiment [2] has as its target CNTF receptor on EW-1 cells (CNTFRα, gp130 and LIFRβ) (UniProt P26992). Nature of the experiment: Scatchard analysis on EW-1 cells, two-site fit; site not assigned in words.
The target of experiment [3] is CNTFRα:β1 (CNTFRα and gp130) on PC12D cells (UniProt Q08406). Briefly: Scatchard analysis of 125I-CNTF saturation binding on PC12D cells, two-site fit; high affinity site, interpreted as the intermediate of CNTF, CNTFRα and gp130.
Chain of CNTFRα:β1 (CNTFRα and gp130) on PC12D cells (Q08406 23-342 limits assumed, chain 1 of 2): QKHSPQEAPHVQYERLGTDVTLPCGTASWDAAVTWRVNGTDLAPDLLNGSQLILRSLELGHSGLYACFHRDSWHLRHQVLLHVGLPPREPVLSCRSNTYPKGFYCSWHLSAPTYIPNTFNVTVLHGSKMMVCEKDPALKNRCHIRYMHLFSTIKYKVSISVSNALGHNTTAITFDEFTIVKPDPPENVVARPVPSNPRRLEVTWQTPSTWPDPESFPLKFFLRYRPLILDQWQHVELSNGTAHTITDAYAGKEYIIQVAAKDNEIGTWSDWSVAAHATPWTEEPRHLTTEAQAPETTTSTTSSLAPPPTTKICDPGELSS
Chain of CNTFRα:β1 (CNTFRα and gp130) on PC12D cells (P40190 23-918 limits assumed, chain 2 of 2, further chain): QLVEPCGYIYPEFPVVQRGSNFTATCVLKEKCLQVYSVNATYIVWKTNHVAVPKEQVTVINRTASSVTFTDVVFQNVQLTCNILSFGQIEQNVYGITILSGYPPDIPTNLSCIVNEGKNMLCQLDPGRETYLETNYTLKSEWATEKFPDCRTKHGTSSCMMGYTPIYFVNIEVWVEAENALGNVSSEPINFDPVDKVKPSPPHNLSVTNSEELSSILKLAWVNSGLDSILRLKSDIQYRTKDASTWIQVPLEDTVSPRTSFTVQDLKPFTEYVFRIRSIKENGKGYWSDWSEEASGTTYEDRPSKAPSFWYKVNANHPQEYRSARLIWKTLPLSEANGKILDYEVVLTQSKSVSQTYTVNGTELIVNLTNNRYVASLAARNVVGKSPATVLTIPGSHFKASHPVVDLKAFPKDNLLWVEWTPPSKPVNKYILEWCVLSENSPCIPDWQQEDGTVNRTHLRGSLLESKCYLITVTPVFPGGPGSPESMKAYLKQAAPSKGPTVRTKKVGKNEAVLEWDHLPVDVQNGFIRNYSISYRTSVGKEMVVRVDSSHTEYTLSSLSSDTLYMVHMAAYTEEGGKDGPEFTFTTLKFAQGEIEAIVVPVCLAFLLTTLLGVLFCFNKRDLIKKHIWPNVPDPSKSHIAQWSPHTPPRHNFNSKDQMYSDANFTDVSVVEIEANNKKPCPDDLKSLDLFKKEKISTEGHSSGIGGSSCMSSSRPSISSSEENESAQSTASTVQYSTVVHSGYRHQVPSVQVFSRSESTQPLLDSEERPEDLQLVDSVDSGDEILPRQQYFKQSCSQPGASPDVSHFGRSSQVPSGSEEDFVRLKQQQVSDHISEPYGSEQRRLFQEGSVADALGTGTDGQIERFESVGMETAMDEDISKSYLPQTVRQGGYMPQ
The target in experiment [4] is recombinant human IL-1 (human). Nature of the experiment: cell-based or functional assay.
Experiment [5] has as its target human IL-13 (human) (UniProt P35225). Briefly: cell-based or functional assay.
Experiment [6] has as its target human IL-4 (human) (UniProt P05112). Briefly: cell-based or functional assay.

Chain of human IL-4 (human) (P05112 25-153 limits assumed): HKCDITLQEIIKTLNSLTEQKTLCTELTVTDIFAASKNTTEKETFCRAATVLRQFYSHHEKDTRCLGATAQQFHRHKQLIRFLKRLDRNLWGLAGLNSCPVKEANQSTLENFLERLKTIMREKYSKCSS
Chain of human IL-13 (human) (P35225 35-146 limits assumed): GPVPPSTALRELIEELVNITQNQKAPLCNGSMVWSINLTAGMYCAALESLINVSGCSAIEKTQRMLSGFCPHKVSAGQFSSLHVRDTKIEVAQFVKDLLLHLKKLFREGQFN
Chain of IL-1-RI.Fc (P14778 18-336): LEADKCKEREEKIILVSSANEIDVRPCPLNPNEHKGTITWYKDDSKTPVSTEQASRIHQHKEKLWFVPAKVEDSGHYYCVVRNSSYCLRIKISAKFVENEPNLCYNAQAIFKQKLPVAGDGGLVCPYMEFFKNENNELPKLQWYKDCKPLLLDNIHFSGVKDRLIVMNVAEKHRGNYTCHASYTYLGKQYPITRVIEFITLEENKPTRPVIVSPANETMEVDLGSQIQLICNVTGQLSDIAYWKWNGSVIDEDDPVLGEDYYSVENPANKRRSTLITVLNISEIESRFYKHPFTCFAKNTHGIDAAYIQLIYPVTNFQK
Chain of CNTF receptor on EW-1 cells (CNTFRα, gp130 and LIFRβ) (P26992 23-342 limits assumed, chain 1 of 3): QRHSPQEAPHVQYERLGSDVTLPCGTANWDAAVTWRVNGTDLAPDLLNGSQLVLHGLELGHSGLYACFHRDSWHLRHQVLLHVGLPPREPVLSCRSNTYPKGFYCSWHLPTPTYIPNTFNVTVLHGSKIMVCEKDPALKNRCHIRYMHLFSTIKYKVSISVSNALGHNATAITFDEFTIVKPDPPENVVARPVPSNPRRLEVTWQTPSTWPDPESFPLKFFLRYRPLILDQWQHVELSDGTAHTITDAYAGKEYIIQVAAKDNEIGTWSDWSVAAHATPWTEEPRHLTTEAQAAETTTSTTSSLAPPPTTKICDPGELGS
Chain of CNTF receptor on EW-1 cells (CNTFRα, gp130 and LIFRβ) (P40189 23-918 limits assumed, chain 2 of 3, further chain): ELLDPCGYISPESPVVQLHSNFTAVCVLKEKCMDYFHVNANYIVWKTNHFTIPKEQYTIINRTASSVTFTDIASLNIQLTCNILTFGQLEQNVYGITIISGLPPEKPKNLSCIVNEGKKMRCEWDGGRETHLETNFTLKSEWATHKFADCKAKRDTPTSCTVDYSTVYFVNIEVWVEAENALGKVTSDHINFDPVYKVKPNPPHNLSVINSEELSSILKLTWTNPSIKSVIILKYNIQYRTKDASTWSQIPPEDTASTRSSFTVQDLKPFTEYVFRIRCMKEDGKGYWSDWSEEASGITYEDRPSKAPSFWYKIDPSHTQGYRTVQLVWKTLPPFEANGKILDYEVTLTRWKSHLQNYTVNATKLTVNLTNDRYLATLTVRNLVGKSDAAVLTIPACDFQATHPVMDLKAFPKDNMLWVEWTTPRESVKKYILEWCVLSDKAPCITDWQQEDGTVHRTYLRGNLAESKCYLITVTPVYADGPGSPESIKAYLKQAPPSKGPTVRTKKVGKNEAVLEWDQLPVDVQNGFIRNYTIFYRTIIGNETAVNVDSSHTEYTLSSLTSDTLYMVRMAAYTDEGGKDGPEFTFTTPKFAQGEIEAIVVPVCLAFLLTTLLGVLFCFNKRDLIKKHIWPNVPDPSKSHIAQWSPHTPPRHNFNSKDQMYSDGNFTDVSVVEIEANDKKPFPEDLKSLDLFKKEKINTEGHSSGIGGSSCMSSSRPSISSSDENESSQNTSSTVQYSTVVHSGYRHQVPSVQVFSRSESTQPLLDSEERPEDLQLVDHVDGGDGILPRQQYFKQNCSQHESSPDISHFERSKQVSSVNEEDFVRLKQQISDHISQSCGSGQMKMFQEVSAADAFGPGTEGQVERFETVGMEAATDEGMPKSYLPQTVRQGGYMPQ
Chain of CNTF receptor on EW-1 cells (CNTFRα, gp130 and LIFRβ) (P42702 45-1097 limits assumed, chain 3 of 3, further chain): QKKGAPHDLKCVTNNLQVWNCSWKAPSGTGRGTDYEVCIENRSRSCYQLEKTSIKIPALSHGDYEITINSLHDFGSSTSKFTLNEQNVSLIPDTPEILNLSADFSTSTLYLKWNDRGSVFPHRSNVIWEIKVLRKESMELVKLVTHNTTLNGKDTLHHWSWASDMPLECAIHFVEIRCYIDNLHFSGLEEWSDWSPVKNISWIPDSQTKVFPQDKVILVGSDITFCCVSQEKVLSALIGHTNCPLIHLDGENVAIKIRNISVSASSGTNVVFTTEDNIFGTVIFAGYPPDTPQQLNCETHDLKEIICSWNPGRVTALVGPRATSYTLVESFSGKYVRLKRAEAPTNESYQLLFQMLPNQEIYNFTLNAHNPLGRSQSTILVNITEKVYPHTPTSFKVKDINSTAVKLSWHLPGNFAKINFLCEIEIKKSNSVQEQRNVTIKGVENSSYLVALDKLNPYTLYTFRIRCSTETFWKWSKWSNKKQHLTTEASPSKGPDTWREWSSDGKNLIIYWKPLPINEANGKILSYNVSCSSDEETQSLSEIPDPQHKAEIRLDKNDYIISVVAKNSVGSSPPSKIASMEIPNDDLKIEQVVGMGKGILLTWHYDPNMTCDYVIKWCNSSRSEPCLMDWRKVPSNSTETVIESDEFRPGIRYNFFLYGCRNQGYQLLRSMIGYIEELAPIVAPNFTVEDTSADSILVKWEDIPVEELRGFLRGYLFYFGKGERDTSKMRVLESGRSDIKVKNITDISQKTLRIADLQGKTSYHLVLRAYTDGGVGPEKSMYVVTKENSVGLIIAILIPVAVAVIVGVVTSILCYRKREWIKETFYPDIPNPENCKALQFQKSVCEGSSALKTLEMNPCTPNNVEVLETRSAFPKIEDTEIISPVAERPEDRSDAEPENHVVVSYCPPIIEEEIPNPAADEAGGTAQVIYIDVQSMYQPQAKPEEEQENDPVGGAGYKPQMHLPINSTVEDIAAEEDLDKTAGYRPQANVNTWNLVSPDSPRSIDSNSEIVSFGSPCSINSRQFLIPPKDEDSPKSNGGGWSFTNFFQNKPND
Chain of CNTFRα on PC12D cells (Q08406 23-342 limits assumed): as the sequence (Q08406 23-342 limits assumed, chain 1 of 2) above

What is called Kd is the free concentration of one partner at which half of the binding sites on the other are occupied at equilibrium, for simple one-to-one binding. Consider 125I-CNTF (ligand), for which the Kd in experiment [1] came to 3.4 nM; in experiment [2], 1 nM; in experiment [3], 0.009 nM.
Consider “IL-1-RI.Fc (from UniProt P14778 18-336) (Fc fusion)”, for which the IL-1-dependent production of IL-6 by MRC5 cells: IL-1 concentration blocked in experiment [4] lay within 10 to 20 pM.
In turn, “IL-4/IL-13 Trap 1132 (from UniProt P24394 26-232; P78552 27-343) (Fc fusion)” returned a TF1 bioassay: activity against IL-4/IL-13 Trap 943 (fold (against Trap 943)) in experiment [5] of 2 to 3.
For the substance “IL-4Rα.IL-13Rα1.Fc (from UniProt P24394 26-232; P78552 22-343) (Fc fusion)”, in experiment [5], the TF1 bioassay: IL-13 concentration at which growth is inhibited by 50% (10 nM trap) was 4 to 5 nM and the TF1 bioassay: IL-13 concentration up to which 10 nM trap blocks growth amounted to 2 nM.
In experiment [5], “IL-13Rα1.IL-4Rα.Fc (from UniProt P78552 22-343; P24394 26-232) (Fc fusion)” showed a TF1 bioassay: IL-13 concentration at which growth is inhibited by 50% (10 nM trap) of 4 to 5 nM and a TF1 bioassay: IL-13 concentration up to which 10 nM trap blocks growth of 2 nM. In experiment [6], this substance showed a TF1 bioassay: IL-4 concentration at which growth is inhibited by 50% (10 nM trap) of 3 to 4 nM and a TF1 bioassay: IL-4 concentration up to which 10 nM trap blocks growth of 1 nM.
